± gives the uncertainty stated by the source.

The data set is described as follows: abundance fitness (aPCA) (normalised: wild type 0, dead -1); higher = more abundant; growth selection in yeast, the domain comes from the species named. As to conditions: Homo sapiens.
As to “Scaffold attachment factor B1 R60C, Q15424”, the abundance fitness is -0.676 ± 0.1.
As to “Scaffold attachment factor B1 R60D, Q15424”, the abundance fitness is -0.659 ± 0.13.
The same measure for “Scaffold attachment factor B1 R60E, Q15424”: -0.551 ± 0.089; for “Scaffold attachment factor B1 R60F, Q15424”: -0.801 ± 0.053.
The figure for “Scaffold attachment factor B1 R60G, Q15424” is -0.464 ± 0.075; for “Scaffold attachment factor B1 R60I, Q15424” it is -0.551 ± 0.11.
The same measure for “Scaffold attachment factor B1 R60K, Q15424”: -0.099 ± 0.065; for “Scaffold attachment factor B1 R60L, Q15424”: -0.335 ± 0.053; for “Scaffold attachment factor B1 R60M, Q15424”: -0.38 ± 0.065.
Take “Scaffold attachment factor B1 R60N, Q15424”: the abundance fitness is -0.326 ± 0.11.
The figure for “Scaffold attachment factor B1 R60P, Q15424” is -0.492 ± 0.072.
The figure for “Scaffold attachment factor B1 R60Q, Q15424” is -0.445 ± 0.081; for “Scaffold attachment factor B1 R60S, Q15424” it is -0.321 ± 0.076.
The figure for “Scaffold attachment factor B1 R60T, Q15424” is -0.268 ± 0.081.
Substance “Scaffold attachment factor B1 R60V, Q15424” gave an abundance fitness of -0.432 ± 0.069.
The same measure for “Scaffold attachment factor B1 R60W, Q15424”: -1.17 ± 0.065.
The same measure for “Scaffold attachment factor B1 R60Y, Q15424”: -0.642 ± 0.11.
“Scaffold attachment factor B1 S32C, Q15424” had an abundance fitness of -0.32 ± 0.077.
The same measure for “Scaffold attachment factor B1 S32D, Q15424”: -0.236 ± 0.088.
With “Scaffold attachment factor B1 S32E, Q15424”, the abundance fitness is -0.419 ± 0.11.
The figure for “Scaffold attachment factor B1 S32F, Q15424” is -0.344 ± 0.083; for “Scaffold attachment factor B1 S32G, Q15424” it is -0.235 ± 0.064; for “Scaffold attachment factor B1 S32H, Q15424” it is -0.493 ± 0.1.
The figure for “Scaffold attachment factor B1 S32K, Q15424” is -0.173 ± 0.088; for “Scaffold attachment factor B1 S32L, Q15424” it is -0.294 ± 0.071.
The figure for “Scaffold attachment factor B1 S32M, Q15424” is -0.21 ± 0.067; for “Scaffold attachment factor B1 S32N, Q15424” it is -0.59 ± 0.1; for “Scaffold attachment factor B1 S32P, Q15424” it is -0.514 ± 0.083.
“Scaffold attachment factor B1 S32R, Q15424” had an abundance fitness of -0.114 ± 0.057.
The figure for “Scaffold attachment factor B1 S32T, Q15424” is -0.217 ± 0.089; for “Scaffold attachment factor B1 S32V, Q15424” it is -0.174 ± 0.059.
The same measure for “Scaffold attachment factor B1 S32W, Q15424”: -0.419 ± 0.053; for “Scaffold attachment factor B1 S32Y, Q15424”: -0.331 ± 0.082.
With “Scaffold attachment factor B1 S50A, Q15424”, the abundance fitness was -0.2 ± 0.062.
The same measure for “Scaffold attachment factor B1 S50C, Q15424”: -0.226 ± 0.072; for “Scaffold attachment factor B1 S50E, Q15424”: -0.278 ± 0.078.
“Scaffold attachment factor B1 S50F, Q15424” yielded an abundance fitness of -0.259 ± 0.08.
For “Scaffold attachment factor B1 S50G, Q15424”, the abundance fitness was -0.257 ± 0.063.

For the origin of these results see the Human Domainome abundance scans (Beltran et al. 2025).
